Patent US10975142B2, “Endotrophin neutralization and use thereof” (THE BOARD OF REGENTS OF THE UNIVERSITY OF TEXAS SYSTEM, priority 2013, dated 2021)
Values belong to the molecule of their own block, whether it stands above or below them.

Legend:
ETP = target: T1, ETP (Mus musculus, UniProt E9PWQ3); experiment: in vivo Matrigel bioassay (stromal cell recruitment into plugs); conditions: recombinant ETP 100 ng/plug vs PBS, mammary fat pads of WT mice
T1 sequence (E9PWQ3 with tags, fused parts or gaps limits assumed): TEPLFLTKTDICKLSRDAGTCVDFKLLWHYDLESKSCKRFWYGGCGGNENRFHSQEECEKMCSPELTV
Method: (§1) FIGS. 7A-7I: ETP acts as a chemokine augmenting tumor growth. […] Tumor volume was determined 1 month after implantation (representative images). Data represent mean±SEM (n=5 per group). ***P<0.001, unpaired t test. (FIG. 7B) In vivo Matrigel bioassay. Matrigel (50 μl) was mixed with ETP (100 ng/plug) or PBS and implanted into WT mice in the presence of IgG, 1D11, or 10B6 (20 μg/plug). 2 days after implantation, plugs were excised and stained for FIG. 7H & FIG. 7E. Scale bars: 100 μm. (FIGS. 7C-7H) Cancer cells were plated in the bottom chamber 1 day prior to seeding MS-1 cells (5×10^5 cells/well) and macrophages (1×10^5 cells/well) atop the membrane chamber in Transwell and incubated for 18-24 hours (FIG. 7C). (FIGS. 7D, 7E, 7F, 7G) Representative images of multiple independent experiments. Scale bars: 100 μm. (FIG. 7H) Quantitation (mean±SEM; n=3 per group). ***P<0.001, […], unpaired t test. (FIG. 7I) MS-1 migration assay. MS-1 cells (5×10^5 cells/well) were plated atop the chamber in Transwell and incubated for 24 hours. Chemotaxis was set up by following cell migration from DMEM/serum-free to DMEM/2% FBS/PBS or DMEM/2% FBS/ETP protein (1 μg/well). Images are representative of multiple independent experiments. Data represent mean±SEM (n=3 per group). ***P=0.008, unpaired t test. Scale bars: 100 μm.

MCF7 = experiment: cell number counts with recombinant endotrophin protein; assay type: cell-based, human; conditions: MCF-7, purified ETP
Method: (§2) FIGS. 15A-15D. Endotrophin has a limited effect on tumor cell proliferation. FIG. 15A. […] An equal number of cancer cells were freshly isolated from tumor tissues of PyMT (ctrl-cancer cells) and PyMT/endotrophin (ETP^+-cancer cells) and implanted into WT mice (1×10^6 cells/mouse). Tumor volume was determined 1 month post-implantation. Quantitative results are represented as mean±SEM (n=7/group). p=n.s vs. Ctrl-cancer cells by unpaired t-test. FIG. 15B. Met-1 cells were seeded into the 96 well plates and incubated with DMEM/10% FBS/PBS, DMEM/10% FBS/endotrophin, or conditioned media acquired from HEK293 or HEK293/endotrophin-overexpressing cells for 24 hours. Mitotic activity was measured with a Mitotic Index Assay Kit (Active Motif) following the manufacturer's protocol. Paclitaxel (1 μM) was used as a positive control of mitosis. Quantified results are represented as mean±SEM (n=10/group) p=n.s vs. PBS or Ctrl-media by unpaired t-test. FIG. 15C. Human breast cancer cells, MCF7 (0.1×10^5) were plated in the 24 well plates with or without recombinant endotrophin protein and cell numbers were counted over time. The quantification of results is represented as mean±SEM (n=6/group, triplicate). p=n.s vs. PBS by unpaired t-test. FIG. 15D. […] Endomucin positive area was quantified and represented as mean±SEM (multiple images, n=4/group). ***p=0.0008 vs. ctrl by unpaired t-test. Scale bars: 200 μm.

Met-1 cells [1] = experiment: Mitotic Index Assay with endotrophin; assay type: cell-based, mouse; conditions: Met-1, purified ETP, 24 hours
Method: as §2

MS-1 cells = experiment: MS-1 migration assay (Transwell); assay type: cell-based, mouse; conditions: ETP protein 1 μg/well, 24 hours
Method: as §1, with “Chemotaxis was set up by following cell migration from DMEM/serum-free to DMEM/2% FBS/PBS or DMEM/2% FBS/ETP protein (1 μg/well). Images are representative of multiple independent experiments. Data represent mean±SEM (n=3 per group). ***P=0.008, unpaired t test. Scale bars: 100 μm.” left out
Thioglycollate-elicited macrophages or MS-1 in serum-free media were loaded into the upper chamber of a Transwell plate (8 μm pore size; Costar). […] 18 hours later, cells on the underside of the membrane were fixed with 10% formalin, stained with hematoxylin, and counted. […]

Met-1 cells [2] = experiment: allografts of Met-1 cells with ETP or PBS and 1D11 or IgG in a Matrigel plug; assay type: in vivo, mouse; conditions: ETP 20 ng/plug vs PBS
Method: FIGS. 6A-6H: ETP augments metastasis through enforcing TGF-β-dependent EMT. (FIG. 6A) E-cadherin immunostaining for tumor tissues from PyMT and PyMT/ETP. (FIG. 6B and FIG. 6C) SBE-luciferase reporter assay. See Supplemental Methods for details. Data represent fold increase (3 independent experiments). **P<0.01, *P<0.05, 2-way ANOVA. pRA-ctrl, empty; pRA-sETP, secretion form; pRA-ETP, intracellular form. (FIGS. 6D-6G) Allografts of Met-1 cells in the presence of either ETP (20 ng/plug) or PBS mixed with 1D11 or IgG (10 μg/plug) within a Matrigel plug. 10 days after implantation, additional 1D11 or IgG (100 μg) was i.p. injected once a week during tumor progression. (FIG. 6D) Tumor volumes represent means±SEM (n=5 per group). *P<0.05, 2-way ANOVA. (FIG. 6E) H&E staining. The ratio of stromal area in tumor tissues was quantified. Data represent mean±SEM (n=5 per group). *P<0.05, unpaired t test. T; tumor and S; stroma. (FIG. 6F) Fibrosis was determined by Masson's Trichrome C stain. Data represent mean±SEM (n=5 per group). **P<0.01, ***P<0.001, unpaired t test. (FIG. 6G) Western blotting for EMT markers E-cadherin, vimentin, and α-SMA. β-actin, loading control. Data represent fold increase (n=5 per group). *P<0.05, **P<0.01, ***P<0.001, unpaired t test. […] 20 days post injection, metastasized cancer cells in the lung tissues were determined by fluorescence intensity. […]

[3] = analysis of ETP homing (IRD-800 labeled ETP, tail vein); assay type: in vivo, mouse
Method: FIGS. 2A-2D: ETP levels in human cancer specimens and its target tissues. (FIG. 2A and FIG. 2B) Human cancer tissues compared with those of benign tissues were immunostained with human ETP-specific polyclonal antibody. Human samples for breast cancer (FIG. 2A) and colon cancer (FIG. 2B) were analyzed. […] (FIG. 2C and FIG. 2D) Whole body in vivo imaging of injected ETP. IRD-800 fluorescence-labeled ETP protein (10 μg) was intravenously injected into WT, 8-week-old PyMT, and 10-week-old PyMT mice by tail vein. (FIG. 2C) ETP levels were visualized by the Licor Infrared Scanner 10-90 minutes after injection. Arrows indicate mammary tumors. L, liver; B, bladder; T, tumor. IgG was used as a negative control. (FIG. 2D) Tissues were excised 2 hours after injection, and ETP-positive fluorescence signals were determined with a Licor Infrared Scanner. Quantified values were normalized to total area and represented as percentage of WT. ***P<0.001.
The homing of ETP in circulation was determined by injecting fluorescently labeled ETP into tail veins. ETP and IgGs were labeled with IRDye800 CW NHS Ester (Licor Bioscience) at a 1:1 molar ratio (dye/protein), according to the manufacturer's instructions. Whole-body fluorescence images were collected on the Odyssey scanner (Licor Bioscience). […] Quantified values were normalized to the total area of each organ.

[4] = target: T2, native form of endotrophin protein (Mus musculus, UniProt E9PWQ3); experiment: capture of IRD-800 labeled native endotrophin by monoclonal antibodies (Protein G Sepharose pull-down); assay type: binding; conditions: 2 hours at room temperature, rat-IgG as control
T2 construct: made in house; purified from conditioned media by gel filtration
T2 sequence (E9PWQ3 with tags, fused parts or gaps): T1 sequence (E9PWQ3 with tags, fused parts or gaps limits assumed)
Description: FIGS. 9A-9C. Generation of endotrophin-specific antibodies. FIG. 9A. HEK-293 cell produced mouse endotrophin was subjected to Western blotting using rabbit anti-mouse endotrophin polyclonal antibody. FIG. 9B. Bacterially produced GST-fused recombinant human endotrophin protein was subjected to western blotting using a rabbit anti-human endotrophin polyclonal antibody. GST protein was used as a negative control. The arrow points at endotrophin. FIG. 9C. […] IRD (infrared dye)-800 labeled native form of endotrophin protein was incubated with either endotrophin monoclonal antibodies, including 4D1, 4F8, 10B6-A11, 10B6-B5, and 10B6-C3 or a rat-IgG for 2 hours at room temperature and subsequently incubated with Protein G Sepharose for 1 hour. The protein-Sepharose complex was separated on a 10-20% Tricine gel after 3 times washing with PBS. Captured endotrophin protein was visualized on a Licor Odyssey Infrared Scanner (Licor Bioscience). Green color represents the IRD800 channel.

stromal cells recruited into Matrigel plugs (ETP): significantly more stromal cells
B1: ETP: cleaved C5 fragment of the COL6α3 chain, used as recombinant or purified protein (protein)
chain: T1 sequence (E9PWQ3 with tags, fused parts or gaps limits assumed)
cell proliferation (cell numbers over time) (MCF7): not affected
cell proliferation (mitotic activity) (Met-1 cells [1]): not affected
MS-1 cells recruited (migration) vs controls (MS-1 cells): twice as many
tumor growth for Met-1 cells (Met-1 cells [2]): significantly enhanced
whole body in vivo distribution of labeled ETP ([3]; 10 μg i.v., PyMT mice, compared with control-labeled IgGs): predominantly observed in tumor lesions
ETP fluorescence in excised tissues relative to mammary glands of WT mice ([3]; tissues excised 2 hours after injection): highly enriched in mammary tumor tissues

capture of the native form of endotrophin protein [4]: efficiently capture
B2: 10B6-A11: rat anti-mouse endotrophin monoclonal antibody (antibody, V domains shown)
VH: QVQLQQSGPELAKPGSSVKISCKASGYTFTSYEMHWIKQRPGQGLEWIGYIYPESGSTGYNEKFKGKATLTVDKSSPTAYMQLSSLTPDNSAVYFCTRGLRVLGYVMDVWGHGTSVTVSS
VL: DVQLTQSPSFLSASVGDRVTINCKASQNINKYLNWYQQKLGEAPKRLIYNTNNLQTGIPSRFSGSASGTDYTLTISSLHPEDFATYFCLQHSSLYTFGAGTKLELK

capture of the native form of endotrophin protein [4]: efficiently capture
B3: 10B6-C3: rat anti-mouse endotrophin monoclonal antibody (antibody, V domains shown)
VH: B2 VH
VL: B2 VL

capture of the native form of endotrophin protein [4]: efficiently capture
B4: 10B6-B5: rat anti-mouse endotrophin monoclonal antibody (antibody, V domains shown)
VH: B2 VH
VL: B2 VL
